Test results from patent US12630600B2 (MEDIMMUNE LIMITED, priority 2022, dated 2026).
Starred links: 1 amine or outer side, 2 acyl side, 3 side chain; linkers in the order of their positions; H or OH if unused. Non-standard residues stand in square brackets, D forms with d. Groups on a side chain read outwards from the residue. No end group written: not given here. *: point of attachment. C20 diacid = O=C(O)CCCCCCCCCCCCCCCCCCC(=O)*; C18 diacid = O=C(O)CCCCCCCCCCCCCCCCC(=O)*; γGlu = O=C(O)[C@H](CCC(=O)[*:2])N[*:1]; αMeF = C[C@](N)(Cc1ccccc1)C(=O)O; AEEA = NCCOCCOCC(=O)O; Aib = CC(C)(N)C(=O)O

Key:
human glucagon receptor = human glucagon receptor (human, UniProt P47871); test: cell-based or functional assay
human GLP-1 receptor = human GLP-1 receptor (human, UniProt P43220); test: cell-based or functional assay

Row | Binder | hGluc-R EC50 (pM) (human glucagon receptor) | hGLP-1R EC50 (pM) (human GLP-1 receptor)
1 | H[Aib]HGS[αMeF]TSDVSK[αMeF]LDSRAAK([γGlu-γGlu-C20 diacid])D[αMeF]VQ[Aib]IANT-NH2 [Peptide 275] | 175 | 111
2 | H[Aib]HGS[αMeF]TSDVSKYLDSRAAKDFVQWIANT-NH2 (not fully specified (residue 20)) [Peptide 292] | 20.4 | 28.7
3 | H[Aib]HGS[αMeF]TSDVSK[Aib]LDSRAAK([AEEA-AEEA-γGlu-γGlu-C20 diacid])D[αMeF]VQ[Aib]IANT-NH2 [Peptide 295] | 17100 | 312
4 | H[Aib]HGS[αMeF]TSDVSK[Aib]LDSRAAK([AEEA-AEEA-γGlu-C18 diacid])D[αMeF]VQ[Aib]IANT-NH2 [Peptide 296] | 3250 | 64.1
5 | H[Aib]HGS[αMeF]TSDVSKYLDSRAAK([AEEA-AEEA-γGlu-C18 diacid])D[αMeF]VQ[Aib]IANT-NH2 (not fully specified; also: X13: αMePhe or Y (table)) [Peptide 286] | 53 | 31.6
6 | H[Aib]HGS[αMeF]TSDVSK[αMeF]LDSRAAK([AEEA-γGlu-γGlu-C20 diacid])D[αMeF]VQ[Aib]IANT-NH2 [Peptide 279] | 150 | 86.5
7 | HSHGS[αMeF]TSDVSK[αMeF]LDSRAAK([AEEA-AEEA-γGlu-C18 diacid])D[αMeF]VQ[Aib]IANT-NH2 [Peptide 285] | 87 | 301
8 | H[Aib]HGS[αMeF]TSDVSK[αMeF]LDSRAAK([AEEA-AEEA-γGlu-C18 diacid])D[αMeF]VQ[Aib]IAET-NH2 (N-terminus assumed; SMILES CC[C@H](C)[C@H](NC(=O)C(C)(C)NC(=O)[C@H](CCC(N)=O)NC(=O)[C@@H](NC(=O)[C@](C)(Cc1ccccc1)NC(=O)[C@H](CC(=O)O)NC(=O)[C@H](CCCCNC(=O)COCCOCCNC(=O)COCCOCCNC(=O)CC[C@H](NC(=O)CCCCCCCCCCCCCCCCC(=O)O)C(=O)O)NC(=O)[C@H](C)NC(=O)[C@H](C)NC(=O)[C@H](CCCNC(=N)N)NC(=O)[C@H](CO)NC(=O)[C@H](CC(=O)O)NC(=O)[C@H](CC(C)C)NC(=O)[C@](C)(Cc1ccccc1)NC(=O)[C@H](CCCCN)NC(=O)[C@H](CO)NC(=O)[C@@H](NC(=O)[C@H](CC(=O)O)NC(=O)[C@H](CO)NC(=O)[C@@H](NC(=O)[C@](C)(Cc1ccccc1)NC(=O)[C@H](CO)NC(=O)CNC(=O)[C@H](Cc1c[nH]cn1)NC(=O)C(C)(C)NC(=O)[C@@H](N)Cc1c[nH]cn1)[C@@H](C)O)C(C)C)C(C)C)C(=O)N[C@@H](C)C(=O)N[C@@H](CCC(=O)O)C(=O)N[C@H](C(N)=O)[C@@H](C)O) [Peptide 300] | 18.4 | 19.7
9 | H[Aib]HGS[αMeF]TSDVSK[αMeF]LDSRAAK([AEEA-AEEA-γGlu-γGlu-C20 diacid])D[αMeF]VQ[Aib]IANT-NH2 [Peptide 281] | 1040 | 155
10 | H[Aib]HGS[αMeF]TSDVSK[αMeF]LDSRAAK([AEEA-C18 diacid])D[αMeF]VQ[Aib]IANT-NH2 [Peptide 273] | 23.3 | 22.1
11 | H[Aib]HGS[αMeF]TSDVSK[αMeF]LDSRAAK([AEEA-AEEA-C20 diacid])D[αMeF]VQ[Aib]IANT-NH2 [Peptide 277] | 57.3 | 49.5
12 | H[Aib]HGS[αMeF]TSDVSK[αMeF]LDSRAAK([AEEA-AEEA-γGlu-C18 diacid])D[αMeF]VQWIANT-NH2 [Peptide 288] | 26.9 | 42.7
13 | H[Aib]HGS[αMeF]TSDVSK[αMeF]LDSRAAK([AEEA-γGlu-γGlu-C18 diacid])D[αMeF]VQ[Aib]IANT-NH2 [Peptide 274] | 31.3 | 27.1
14 | H[Aib]HGS[αMeF]TSDVSK[αMeF]LDSRAAK([AEEA-AEEA-γGlu-C20 diacid])D[αMeF]VQ[Aib]IANT-NH2 [Peptide 280] | 155 | 78.3
15 | H[Aib]HGS[αMeF]TSDVSR[αMeF]LDSRAAK([AEEA-AEEA-γGlu-γGlu-C20 diacid])D[αMeF]VQ[Aib]IANT-NH2 (N-terminus assumed; SMILES CC[C@H](C)[C@H](NC(=O)C(C)(C)NC(=O)[C@H](CCC(N)=O)NC(=O)[C@@H](NC(=O)[C@](C)(Cc1ccccc1)NC(=O)[C@H](CC(=O)O)NC(=O)[C@H](CCCCNC(=O)COCCOCCNC(=O)COCCOCCNC(=O)CC[C@H](NC(=O)CC[C@H](NC(=O)CCCCCCCCCCCCCCCCCCC(=O)O)C(=O)O)C(=O)O)NC(=O)[C@H](C)NC(=O)[C@H](C)NC(=O)[C@H](CCCNC(=N)N)NC(=O)[C@H](CO)NC(=O)[C@H](CC(=O)O)NC(=O)[C@H](CC(C)C)NC(=O)[C@](C)(Cc1ccccc1)NC(=O)[C@H](CCCNC(=N)N)NC(=O)[C@H](CO)NC(=O)[C@@H](NC(=O)[C@H](CC(=O)O)NC(=O)[C@H](CO)NC(=O)[C@@H](NC(=O)[C@](C)(Cc1ccccc1)NC(=O)[C@H](CO)NC(=O)CNC(=O)[C@H](Cc1c[nH]cn1)NC(=O)C(C)(C)NC(=O)[C@@H](N)Cc1c[nH]cn1)[C@@H](C)O)C(C)C)C(C)C)C(=O)N[C@@H](C)C(=O)N[C@@H](CC(N)=O)C(=O)N[C@H](C(N)=O)[C@@H](C)O) [Peptide 298] | 573 | 75.5
16 | H[Aib]HGS[αMeF]TSDVSK[αMeF]LDSRAAKD[αMeF]VQWIANT-NH2 (not fully specified (residue 20); also: X13: αMePhe or Y (table)) [Peptide 289] | 148 | 118
17 | H[Aib]HGS[αMeF]TSDVSK[αMeF]LDSRAAK([γGlu-C20 diacid])D[αMeF]VQ[Aib]IANT-NH2 [Peptide 276] | 91.4 | 143
18 | H[Aib]HGS[αMeF]TSDVSK[αMeF]LDSRAAK([AEEA-AEEA-γGlu-C18 diacid])DFVQ[Aib]IANT-NH2 [Peptide 287] | 26.5 | 27.5
19 | H[Aib]HGS[αMeF]TSDVSK[αMeF]LDSRAAK([AEEA-AEEA-γGlu-γGlu-C20 diacid])D[αMeF]IA[Aib]IAET-NH2 [Peptide 302] | 271 | 151
20 | H[Aib]HGS[αMeF]TSDVSK[αMeF]LDSRAAK([AEEA-C20 diacid])D[αMeF]VQ[Aib]IANT-NH2 [Peptide 278] | 83.5 | 78.9
21 | H[Aib]HGS[αMeF]TSDVSK[αMeF]LDSRAAK([AEEA-AEEA-γGlu-γGlu-C20 diacid])D[αMeF]VQ[Aib]IANT-OH [Peptide 304] | 687 | 239
22 | H[Aib]HGS[αMeF]TSDVSK[αMeF]LDSRAAK([AEEA-AEEA-γGlu-C18 diacid])D[αMeF]VQ[Aib]IANT-NH2 [Peptide 284] | 119 | 43.4
23 | H[Aib]HGS[αMeF]TSDVSK[αMeF]LDSRAAK([AEEA-AEEA-γGlu-γGlu-C20 diacid])DFVQWIANT-NH2 (not fully specified) [Peptide 290] | 260 | 347
24 | H[Aib]HGS[αMeF]TSDVSK[αMeF]LDSRAAK([AEEA-AEEA-C18 diacid])D[αMeF]VQ[Aib]IANT-NH2 [Peptide 272] | 14.3 | 15.7
25 | H[Aib]HGS[αMeF]TSDVSK[αMeF]LDSRAAK([AEEA-AEEA-γGlu-γGlu-C20 diacid])D[αMeF]VQ[Aib]IANT-NH2 (not fully specified) [Peptide 282] | 1140 | 1230
